Test results published in the supplement of paper PMC5998384.

How the values were obtained:
HeLa Kyoto [1] = test: solubility in G1/S (NP-40 vs SDS abundance) (log2 ratio); higher = more soluble; settings: cell cycle stage: G1/S
HeLa Kyoto [2] = test: solubility change mitosis vs G1/S (difference of NP-40 vs SDS log2 ratios) (log2 ratio difference); higher = more soluble in mitosis
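Wherever solubility change mitosis vs G1/S (difference of NP-40 vs SDS log2 ratios) is given: synchronized HeLa Kyoto cells (double thymidine block for G1/S, nocodazole release for mitosis), protein amounts in NP-40 versus SDS lysates quantified by mass spectrometry, three biological replicates.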
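Wherever solubility in G1/S (NP-40 vs SDS abundance) is given: HeLa Kyoto cells arrested at G1/S by double thymidine block, proteins quantified by TMT10plex mass spectrometry in mild NP-40 versus SDS extracts, three biological replicates.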

| Sequence | solubility in G1/S (log2) (HeLa Kyoto [1]) | solubility change mitosis (log2) (HeLa Kyoto [2]) |
| --- | --- | --- |
| MVGRSRRRGAAKWAAVRAKAGPTLTDENGDDLGLPPSPGDTSYYQDQVDDFHEARSRAALAKGWNEVQSGDEEDGEEEEEEVLALDMDDEDDEDGGNAGEEEEEENADDDGGSSVQSEAEASVDPSLSWGQRKKLYYDTDYGSKSRGRQSQQEAEEEEREEEEEAQIIQRRLAQALQEDDFGVAWVEAFAKPVPQVDEAETRVVKDLAKVSVKEKLKMLRKESPELLELIEDLKVKLTEVKDELEPLLELVEQGIIPPGKGSQYLRTKYNLYLNYCSNISFYLILKARRVPAHGHPVIERLVTYRNLINKLSVVDQKLSSEIRHLLTLKDDAVKKELIPKAKSTKPKPKSVSKTSAAACAVTDLSDDSDFDEKAKLKYYKEIEDRQKLKRKKEENSTEEQALEDQNAKRAITYQIAKNRGLTPRRKKIDRNPRVKHREKFRRAKIRRRGQVREVRKEEQRYSGELSGIRAGVKKSIKLK [UTP3] | -1.76 | 1.04 |
| MVHAFLIHTLRAPNTEDTGLCRVLYSCVFGAEKSPDDPRPHGAERDRLLRKEQILAVARQVESMCRLQQQASGRPPMDLQPQSSDEQVPLHEAPRGAFRLAAENPFQEPRTVVWLGVLSLGFALVLDAHENLLLAEGTLRLLTRLLLDHLRLLAPSTSLLLRADRIEGILTRFLPHGQLLFLNDQFVQGLEKEFSAAWPR [AP5S1] | -0.269 | -0.153 |
| MVKLFIGNLPREATEQEIRSLFEQYGKVLECDIIKNYGFVHIEDKTAAEDAIRNLHHYKLHGVNINVEASKNKSKASTKLHVGNISPTCTNQELRAKFEEYGPVIECDIVKDYAFVHMERAEDAVEAIRGLDNTEFQGKRMHVQLSTSRLRTAPGMGDQSGCYRCGKEGHWSKECPVDRTGRVADFTEQYNEQYGAVRTPYTMGYGESMYYNDAYGALDYYKRYRVRSYEAVAAAAAASAYNYAEQTMSHLPQVQSTTVTSHLNSTSVDPYDRHLLPNSGAAATSAAMAAAAATTSSYYGRDRSPLRRAAAMLPTVGEGYGYGPESELSQASAATRNSLYDMARYEREQYVDRARYSAF [RBM4B] | 0.227 | -0.335 |
| MVLKAFFPTCCVSTDSGLLVGRWVPEQSSAVVLAVLHFPFIPIQVKQLLAQVRQASQVGVAVLGTWCHCRQEPEESLGRFLESLGAVFPHEPWLRLCRERGGTFWSCEATHRQAPTAPGAPGEDQVMLIFYDQRQVLLSQLHLPTVLPDRQAGATTASTGGLAAVFDTVARSEVLFRSDRFDEGPVRLSHWQSEGVEASILAELARRASGPICLLLASLLSLVSAVSACRVFKLWPLSFLGSKLSTCEQLRHRLEHLTLIFSTRKAENPAQLMRKANTVASVLLDVALGLMLLSWLHGRSRIGHLADALVPVADHVAEELQHLLQWLMGAPAGLKMNRALDQVLGRFFLYHIHLWISYIHLMSPFVEHILWHVGLSACLGLTVALSLLSDIIALLTFHIYCFYVYGARLYCLKIHGLSSLWRLFRGKKWNVLRQRVDSCSYDLDQLFIGTLLFTILLFLLPTTALYYLVFTLLRLLVVAVQGLIHLLVDLINSLPLYSLGLRLCRPYRLADKPTALQPRGAHLPPPQLWLPPQALLGRPVPQAVPWGAHLPLEAERGQAGLRELLARLAPPHGHSQPSALPGWHQLSWRMSCALWTLLCAPEHGRPCYHTLGLEVIGSEQMWGWPARLAALHHWHCLPWDPLPTCCGHHGGEHSNPRCPEHCPMPTLCTQVQRVRPPQQPQVEGWSPWGLPSGSALAVGVEGPCQDEPPSPRHPLAPSAEQHPASGGLKQSLTPVPSGPGPSLPEPHGVYLRMFPGEVAL [PIGQ] | -0.0206 | -0.119 |
| MVMADGPRHLQRGPVRVGFYDIEGTLGKGNFAVVKLGRHRITKTEVAIKIIDKSQLDAVNLEKIYREVQIMKMLDHPHIIKLYQVMETKSMLYLVTEYAKNGEIFDYLANHGRLNESEARRKFWQILSAVDYCHGRKIVHRDLKAENLLLDNNMNIKIADFGFGNFFKSGELLATWCGSPPYAAPEVFEGQQYEGPQLDIWSMGVVLYVLVCGALPFDGPTLPILRQRVLEGRFRIPYFMSEDCEHLIRRMLVLDPSKRLTIAQIKEHKWMLIEVPVQRPVLYPQEQENEPSIGEFNEQVLRLMHSLGIDQQKTIESLQNKSYNHFAAIYFLLVERLKSHRSSFPVEQRLDGRQRRPSTIAEQTVAKAQTVGLPVTMHSPNMRLLRSALLPQASNVEAFSFPASGCQAEAAFMEEECVDTPKVNGCLLDPVPPVLVRKGCQSLPSNMMETSIDEGLETEGEAEEDPAHAFEAFQSTRSGQRRHTLSEVTNQLVVMPGAGKIFSMNDSPSLDSVDSEYDMGSVQRDLNFLEDNPSLKDIMLANQPSPRMTSPFISLRPTNPAMQALSSQKREVHNRSPVSFREGRRASDTSLTQGIVAFRQHLQNLARTKGILELNKVQLLYEQIGPEADPNLAPAAPQLQDLASSCPQEEVSQQQESVSTLPASVHPQLSPRQSLETQYLQHRLQKPSLLSKAQNTCQLYCKEPPRSLEQQLQEHRLQQKRLFLQKQSQLQAYFNQMQIAESSYPQPSQQLPLPRQETPPPSQQAPPFSLTQPLSPVLEPSSEQMQYSPFLSQYQEMQLQPLPSTSGPRAAPPLPTQLQQQQPPPPPPPPPPRQPGAAPAPLQFSYQTCELPSAASPAPDYPTPCQYPVDGAQQSDLTGPDCPRSPGLQEAPSSYDPLALSELPGLFDCEMLDAVDPQHNGYVLVN [SIK2] | 0.0463 | -0.0513 |
| MVPGARGGGALARAAGRGLLALLLAVSAPLRLQAEELGDGCGHLVTYQDSGTMTSKNYPGTYPNHTVCEKTITVPKGKRLILRLGDLDIESQTCASDYLLFTSSSDQYGPYCGSMTVPKELLLNTSEVTVRFESGSHISGRGFLLTYASSDHPDLITCLERASHYLKTEYSKFCPAGCRDVAGDISGNMVDGYRDTSLLCKAAIHAGIIADELGGQISVLQRKGISRYEGILANGVLSRDGSLSDKRFLFTSNGCSRSLSFEPDGQIRASSSWQSVNESGDQVHWSPGQARLQDQGPSWASGDSSNNHKPREWLEIDLGEKKKITGIRTTGSTQSNFNFYVKSFVMNFKNNNSKWKTYKGIVNNEEKVFQGNSNFRDPVQNNFIPPIVARYVRVVPQTWHQRIALKVELIGCQITQGNDSLVWRKTSQSTSVSTKKEDETITRPIPSEETSTGINITTVAIPLVLLVVLVFAGMGIFAAFRKKKKKGSPYGSAEAQKTDCWKQIKYPFARHQSAEFTISYDNEKEMTQKLDLITSDMADYQQPLMIGTGTVTRKGSTFRPMDTDAEEAGVSTDAGGHYDCPQRAGRHEYALPLAPPEPEYATPIVERHVLRAHTFSAQSGYRVPGPQPGHKHSLSSGGFSPVAGVGAQDGDYQRPHSAQPADRGYDRPKAVSALATESGHPDSQKPPTHPGTSDSYSAPRDCLTPLNQTAMTALL [DCBLD1] | 0.0249 | -0.0211 |
| MVRDSMAAAFRPSNRVLLQALQILVYPGVGGSGSVSCRCPLGAKRYLLTDNVVKLKEFQQKKVAVACNLSGTKETYFRNLKKKLTQNKLILKGELITLLHLCESRDHVELAKNVIYRYHAENKNFTLGEYKFGPLFVRLCYELDLEESAVELMKDQHLRGFFSDSTSFNILMDMLFIKGKYKSALQVLIEMKNQDVKFTKDTYVLAFAICYKLNSPESFKICTTLREEALLKGEILSRRASCFAVALALNQNEMAKAVSIFSQIMNPESIACINLNIIIHIQSNMLENLIKTLKNAAEGNLSKFVKRHVFSEEVLAKVREKVKDVPALVAKFDEIYGTLHITGQVTTDSLDAVLCHTPRDRKSHTLLLNKRMVSRRTFQPLSQSLLAE [PTCD2] | -0.0152 | 0.106 |
| MVRKLKFHEQKLLKQVDFLNWEVTDHNLHELRVLRRYRLQRREDYTRYNQLSRAVRELARRLRDLPERDQFRVRASAALLDKLYALGLVPTRGSLELCDFVTASSFCRRRLPTVLLKLRMAQHLQAAVAFVEQGHVRVGPDVVTDPAFLVTRSMEDFVTWVDSSKIKRHVLEYNEERDDFDLEA [IMP3] | -2.11 | 1.1 |
| MVVPSLKLQDLIEEIRGAKTQAQEREVIQKECAHIRASFRDGDPVHRHRQLAKLLYVHMLGYPAHFGQMECLKLIASSRFTDKRVGYLGAMLLLDERHDAHLLITNSIKNDLSQGIQPVQGLALCTLSTMGSAEMCRDLAPEVEKLLLQPSPYVRKKAILTAVHMIRKVPELSSVFLPPCAQLLHERHHGILLGTITLITELCERSPAALRHFRKVVPQLVHILRTLVTMGYSTEHSISGVSDPFLQVQILRLLRILGRNHEESSETMNDLLAQVATNTDTSRNAGNAVLFETVLTIMDIRSAAGLRVLAVNILGRFLLNSDRNIRYVALTSLLRLVQSDHSAVQRHRPTVVECLRETDASLSRRALELSLALVNSSNVRAMMQELQAFLESCPPDLRADCASGILLAAERFAPTKRWHIDTILHVLTTAGTHVRDDAVANLTQLIGGAQELHAYSVRRLYNALAEDISQQPLVQVAAWCIGEYGDLLLAGNCEEIEPLQVDEEEVLALLEKVLQSHMSLPATRGYALTALMKLSTRLCGDNNRIRQVVSIYGSCLDVELQQRAVEYDTLFRKYDHMRAAILEKMPLVERDGPQADEEAKESKEAAQLSEAAPVPTEPQASQLLDLLDLLDGASGDVQHPPHLDPSPGGALVHLLDLPCVPPPPAPIPDLKVFEREGVQLNLSFIRPPENPALLLITITATNFSEGDVTHFICQAAVPKSLQLQLQAPSGNTVPARGGLPITQLFRILNPNKAPLRLKLRLTYDHFHQSVQEIFEVNNLPVESWQ [AP1G2] | -0.0347 | -0.154 |
| MWRGRAGALLRVWGFWPTGVPRRRPLSCDAASQAGSNYPRCWNCGGPWGPGREDRFFCPQCRALQAPDPTRDYFSLMDCNRSFRVDTAKLQHRYQQLQRLVHPDFFSQRSQTEKDFSEKHSTLVNDAYKTLLAPLSRGLYLLKLHGIEIPERTDYEMDRQFLIEIMEINEKLAEAESEAAMKEIESIVKAKQKEFTDNVSSAFEQDDFEEAKEILTKMRYFSNIEEKIKLKKIPL [HSCB] | 0.296 | 0.307 |
| MWRMRGGATRRGSCCGGDGAADGRGPGRSGRARGGGSPSGGGGGVGWRGRADGARQQLEERFADLAASHLEAIRARDEWDRQNARLRQENARLRLENRRLKRENRSLFRQALRLPGEGGNGTPAEARRVPEEASTNRRARDSGREDEPGSPRALRARLEKLEAMYRRALLQLHLEQRGPRPSGDKEEQPLQEPDSGLRSRDSEPSGPWL [TUSC1] | 0.541 | 0.105 |
| MWTADEIAQLCYEHYGIRLPKKGKPEPNHEWTLLAAVVKIQSPADKACDTPDKPVQVTKEVVSMGTGTKCIGQSKMRKNGDILNDSHAEVIARRSFQRYLLHQLQLAATLKEDSIFVPGTQKGVWKLRRDLIFVFFSSHTPCGDASIIPMLEFEDQPCCPVFRNWAHNSSVEASSNLEAPGNERKCEDPDSPVTKKMRLEPGTAAREVTNGAAHHQSFGKQKSGPISPGIHSCDLTVEGLATVTRIAPGSAKVIDVYRTGAKCVPGEAGDSGKPGAAFHQVGLLRVKPGRGDRTRSMSCSDKMARWNVLGCQGALLMHLLEEPIYLSAVVIGKCPYSQEAMQRALIGRCQNVSALPKGFGVQELKILQSDLLFEQSRSAVQAKRADSPGRLVPCGAAISWSAVPEQPLDVTANGFPQGTTKKTIGSLQARSQISKVELFRSFQKLLSRIARDKWPHSLRVQKLDTYQEYKEAASSYQEAWSTLRKQVFGSWIRNPPDYHQFK [ADAT1] | 0.316 | -0.0783 |
